Three molecules from patent US20160046725A1 (PIERRE FABRE MEDICAMENT, published 2016) can be followed below.

First the molecules themselves.
T1: recombinant human Dtk-Fc protein (R and D Systems, cat N° 859-DK) (human, UniProt Q06418 41-428)
T1 construct: Bought construct; also called rhDtk-Fc; rhDtk; not shown: Fc portion of the bought fusion
T1 sequence (looked up): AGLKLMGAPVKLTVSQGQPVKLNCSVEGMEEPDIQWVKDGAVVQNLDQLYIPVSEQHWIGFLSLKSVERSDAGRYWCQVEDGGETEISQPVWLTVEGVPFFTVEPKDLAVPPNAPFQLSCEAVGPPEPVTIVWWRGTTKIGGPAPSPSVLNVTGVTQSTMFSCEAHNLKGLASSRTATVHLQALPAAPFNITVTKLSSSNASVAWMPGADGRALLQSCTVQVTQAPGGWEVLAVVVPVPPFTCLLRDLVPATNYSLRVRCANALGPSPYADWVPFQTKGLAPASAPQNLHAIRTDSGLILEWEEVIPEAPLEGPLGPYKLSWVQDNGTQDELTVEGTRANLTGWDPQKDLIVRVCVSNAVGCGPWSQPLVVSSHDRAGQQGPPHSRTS

T2: recombinant human Mer-Fc protein (R and D Systems, cat N° 891-MR) (human, UniProt Q12866 26-499, limits assumed)
T2 construct: Bought construct; also called rhMer-Fc; rh-Mer-Fc; not shown: Fc portion of the bought fusion
T2 sequence (looked up): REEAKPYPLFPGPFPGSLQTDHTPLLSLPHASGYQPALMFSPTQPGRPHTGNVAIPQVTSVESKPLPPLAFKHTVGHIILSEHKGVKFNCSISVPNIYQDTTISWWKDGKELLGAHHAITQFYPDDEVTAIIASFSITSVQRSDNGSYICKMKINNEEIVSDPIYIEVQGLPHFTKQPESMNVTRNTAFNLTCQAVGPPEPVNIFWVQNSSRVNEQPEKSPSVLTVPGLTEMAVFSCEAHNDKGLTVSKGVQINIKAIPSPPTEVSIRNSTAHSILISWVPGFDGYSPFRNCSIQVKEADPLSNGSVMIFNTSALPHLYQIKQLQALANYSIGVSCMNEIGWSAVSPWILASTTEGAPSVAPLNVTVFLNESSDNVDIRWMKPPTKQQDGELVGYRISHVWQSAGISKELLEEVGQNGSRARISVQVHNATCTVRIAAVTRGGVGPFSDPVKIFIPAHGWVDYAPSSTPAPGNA

T3: recombinant human Axl-Fc protein (R and D Systems, cat N° 154-AL) (human, UniProt P30530 26-451)
T3 construct: Bought construct; An anti-Histidine coating control hints at a His tag, not described; also called rhAxl-Fc; rh Axl-Fc; not shown: human Fc portion of the bought fusion
T3 sequence: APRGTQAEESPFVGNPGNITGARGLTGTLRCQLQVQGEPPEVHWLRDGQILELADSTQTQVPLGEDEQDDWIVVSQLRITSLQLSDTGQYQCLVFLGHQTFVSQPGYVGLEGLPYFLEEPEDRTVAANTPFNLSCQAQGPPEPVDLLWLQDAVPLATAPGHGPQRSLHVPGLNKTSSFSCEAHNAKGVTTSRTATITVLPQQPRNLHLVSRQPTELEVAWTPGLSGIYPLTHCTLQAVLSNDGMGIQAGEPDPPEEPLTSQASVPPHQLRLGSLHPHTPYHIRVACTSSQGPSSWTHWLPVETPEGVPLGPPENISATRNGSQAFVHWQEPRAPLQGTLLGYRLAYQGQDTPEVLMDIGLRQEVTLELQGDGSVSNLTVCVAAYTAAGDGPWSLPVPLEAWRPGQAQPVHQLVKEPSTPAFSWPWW

B1: 110D7 anti-Axl monoclonal antibody (antibody, V domains shown)
VH: EVKLVESGGGLVQPGGSLKLSCATSGFTFSDYYMYWVRQTPEKRLEWVAYISNGGGSTYYPDTVKGRFTMSRDNAKNTLYLQMSRLKSEDTAMYYCARLSFYAMDYWGQGTSVTVSS
VL: DIVMTQSHKFMSTSVGDRVSITCKASQDVTTAVAWYQQKPGQSPKLLIYWASTRHTGVPDRFTGSGSGTDYTLTISSVQAEDLALYYCQQHYRIPFTFGSGTKLEIK
notes: Murine monoclonal antibody purified from a hybridoma; a mIgG1 isotype control (9G4) is used beside it; also called m110D7; monoclonal antibody 110D7 derived from the hybridoma I-3959
B2: 1024G11 anti-Axl monoclonal antibody (antibody, V domains shown)
VH: EVKLVESGGGLVQPGGSLNLSCAASGFTFSSYSMSWVRQTPEKRLEWVAFISNGGGRTYYPDTVKGRFTFSRDNARNTLYLQMSSLNSEDTAMYFCARGTTESYYAMDYWGQGTSVTVSS
VL: B1 VL with T30I, Y87F, Y92L, R93S, I94T, F96L, S100A, I106L
notes: Murine monoclonal antibody purified from a hybridoma; a mIgG1 isotype control (9G4) is used beside it; also called monoclonal antibody 1024G11 derived from the hybridoma I-4501
B3: 1003A2 anti-Axl monoclonal antibody (antibody, V domains shown)
VH: B2 VH with N19K, S30N, F50Y, V64I, F70L, A75D, N87K, F95Y, M107L
VL: B1 VL with V15L, V19I, T30I, T72N, Y92F, R93S, I94T, F96L, S100A, I106L
notes: Murine monoclonal antibody purified from a hybridoma; a mIgG1 isotype control (9G4) is used beside it; also called monoclonal antibody 1003A2 derived from the hybridoma I-4499

Where a chain is given by its changes, count along the chain named.

One test has as its target T1, recombinant human Dtk-Fc protein (R and …). Kind of test: ELISA on coated protein. As to the method: (§1) Briefly, the recombinant human Axl-Fc (R and D systems, cat N° 154AL/CF), rhDtk (R and D Systems, cat N° 859-DK) or rh-Mer-Fc (R and D Systems, cat N° 891-MR) proteins were coated overnight at 4° C. to Immulon II 96-well plates and, after a 1 h blocking step with a 0.5% gelatine solution, 110D7, 1003A2, 1024G11 purified antibodies were added, respectively, for an additional 1 h at 37° C. at starting concentration of 5 μg/ml (3.33 10⁻⁸M). Then ½ serial dilutions were done over 12 columns. Then plates were washed and a goat anti-mouse (Jackson) specific IgG-HRP was added for 1 h at 37° C. Reaction development was performed using the TMB substrate solution. The commercial anti-Axl Mab 154 antibody is also used in parallel (data not shown). Coating controls are performed in presence of a goat anti-human IgG Fc polyclonal serum labelled with HRP (Jackson, ref 109-035-098) and/or in presence of a HRP-coupled anti-Histidine antibody (R and D Systems, ref: MAB050H). No non specific binding is observed in absence of primary antibody (diluant). Results for the 110D7 are represented in FIGS. 2A, 2B and 2C, respectively. Results for the 1003A2 are represented in FIGS. 2D, 2E and 2F, respectively. Results for the 1024G11 are represented in FIGS. 2G, 2H and 2I, respectively.
(In an ELISA, binding on a coated surface is turned into a signal by an enzyme label.)
For the molecule B1, the binding result is on record as “no binding”.

Consider B2, for which the binding result is listed as “no binding”.

B3: the binding result is given as “no binding”.

For a further test, the target named is T2, recombinant human Mer-Fc protein (R and …). Kind of test: ELISA on coated protein. As to the method:
as §1
As to B1, the binding result is on record as “no binding”.

In the case of B2, the binding result was “no binding”.

On to B3, for which the binding result is “no binding”.

In the next test the target is T3, recombinant human Axl-Fc protein (R and …). Kind of test: competition ELISA, rhAxl-Fc on coated rhGas6 (competitor: Gas6). As to the method:
To further characterize the anti-Axl Mabs, Gas6 competition assays were performed. In this assay, the free rhAxl-Fc protein and the anti-Axl antibody are incubated to form antigen-antibody complex and then the complexes are loaded on Gas6-coated surface in the assay plate. The unbound antibody-antigen complexes are washed off before adding enzyme-linked secondary antibody against the human Fc portion of the rhAxl-Fc protein. The substrate is then added and the antigen concentration can then be determined by the signal strength elicited by the enzyme-substrate reaction.
Briefly reaction mixture comprising the rhAxl-Fc protein in presence or not of the Mabs to be tested, are prepared on a separate saturated (0.5% gelatin in PBS 1×) plate. Serial 1: 2 dilutions (starting from 80 μg/ml on 12 columns) of murine Axl antibodies (110D7, 1003A2 and 1024G11) are performed. Then 0.5 μg/ml of the rhAxl-Fc protein is added (R and D Systems, ref 154AL/CF), except to the negative control line that contains only ELISA diluant (0.1% gelatin, 0.05% Tween 20 in PBS 1×). After homogenisation, the competition samples are loaded on Gas6-coated plates with a 6 μg/ml rhGas6 solution in PBS (R and D Systems cat N° 885-GS-CS/CF). After incubation and several washes, bound rhAxl-Fc proteins are detected using a goat anti-Human IgG-HRP (Jackson, ref 109-035-098). Once bound, the TMB substrate is added to the plates. The reaction is stopped by addition of H₂SO₄ acid solution and the obtained optical densities read at 450 nm using a microplate reader instrument.
B1: the “antibody concentration above which competition with Gas6 binding occurs” value was above 16.7 nM.

For the molecule B2, the “antibody concentration above which competition with Gas6 binding occurs” value was above 16.7 nM.

Take B3: the “antibody concentration above which competition with Gas6 binding occurs” value was above 16.7 nM.
